Laboratory results: patent publication US20220056092A1
Each block holds one substance with its values, some of them ahead of it.

Target: IL12 receptor on bystander (GFP+) T cells (human) (UniProt P42701)
Assay: cell-based or functional assay

IL12 receptor on bystander (GFP+) T cells (human), sequence (Q99665 24-862, chain 2 of 2, other chains not shown): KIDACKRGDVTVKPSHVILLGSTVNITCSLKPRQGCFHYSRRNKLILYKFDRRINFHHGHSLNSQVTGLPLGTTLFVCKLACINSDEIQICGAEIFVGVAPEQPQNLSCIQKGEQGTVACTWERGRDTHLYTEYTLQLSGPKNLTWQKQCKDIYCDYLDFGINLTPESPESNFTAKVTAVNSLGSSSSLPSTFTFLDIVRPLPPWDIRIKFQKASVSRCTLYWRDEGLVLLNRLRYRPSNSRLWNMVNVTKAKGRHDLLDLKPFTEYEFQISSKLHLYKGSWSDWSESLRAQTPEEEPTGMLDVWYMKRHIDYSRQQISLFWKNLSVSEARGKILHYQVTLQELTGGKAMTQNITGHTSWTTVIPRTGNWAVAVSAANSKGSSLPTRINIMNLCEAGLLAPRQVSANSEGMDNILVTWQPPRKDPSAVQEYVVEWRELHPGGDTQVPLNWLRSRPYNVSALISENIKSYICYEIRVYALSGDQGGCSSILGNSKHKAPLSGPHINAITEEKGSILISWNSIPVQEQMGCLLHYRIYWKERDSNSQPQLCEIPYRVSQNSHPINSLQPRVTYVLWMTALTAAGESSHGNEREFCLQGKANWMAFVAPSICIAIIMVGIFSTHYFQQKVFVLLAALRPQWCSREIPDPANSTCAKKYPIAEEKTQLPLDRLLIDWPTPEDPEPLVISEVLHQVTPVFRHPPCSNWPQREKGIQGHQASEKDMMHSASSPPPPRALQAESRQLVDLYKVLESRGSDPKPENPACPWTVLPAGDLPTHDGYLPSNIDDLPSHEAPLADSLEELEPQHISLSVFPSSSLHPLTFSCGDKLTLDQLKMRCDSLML
secreted IL12 encoded by OT-001356 (ORF2: p40 signal sequence; p40 (23-328 of WT); Linker ((G4S)3); p35 (57-253 of WT); BamHI (GS)) (ligand), sequence (chain): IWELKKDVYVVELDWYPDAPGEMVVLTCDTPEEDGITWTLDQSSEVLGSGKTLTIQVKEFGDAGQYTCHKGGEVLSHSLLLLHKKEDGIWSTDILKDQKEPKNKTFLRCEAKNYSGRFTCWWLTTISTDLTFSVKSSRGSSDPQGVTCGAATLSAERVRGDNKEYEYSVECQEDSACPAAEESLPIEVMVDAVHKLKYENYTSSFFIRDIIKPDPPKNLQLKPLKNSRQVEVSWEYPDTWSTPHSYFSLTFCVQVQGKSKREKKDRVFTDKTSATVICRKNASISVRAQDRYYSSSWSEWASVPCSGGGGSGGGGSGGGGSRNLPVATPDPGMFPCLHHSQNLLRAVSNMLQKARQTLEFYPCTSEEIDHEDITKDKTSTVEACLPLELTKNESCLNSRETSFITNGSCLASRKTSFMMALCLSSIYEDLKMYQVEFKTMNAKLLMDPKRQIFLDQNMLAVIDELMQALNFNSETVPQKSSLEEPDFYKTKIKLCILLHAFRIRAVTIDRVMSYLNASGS

Substance: secreted IL12 encoded by OT-001356 (ORF2: p40 signal sequence; p40 (23-328 of WT); Linker ((G4S)3); p35 (57-253 of WT); BamHI (GS)) (ligand)
Bystander effect (pSTAT4 geometric MFI on GFP+ T cells in 1 hour supernatants), CAR-IL12+:GFP+ ratio 73.9 (geometric MFI): -2620
Bystander effect (pSTAT4 geometric MFI on GFP+ T cells in 1 hour supernatants), ratio 2.3 (geometric MFI): -1090
Bystander effect (pSTAT4 geometric MFI on GFP+ T cells in 1 hour supernatants), ratio 4.6 (geometric MFI): -518
Bystander effect (pSTAT4 geometric MFI on GFP+ T cells in 1 hour supernatants), ratio 9.2 (geometric MFI): -86
Bystander effect (pSTAT4 geometric MFI on GFP+ T cells in 1 hour supernatants), ratio 18.5 (geometric MFI): -226
Bystander effect (pSTAT4 geometric MFI on GFP+ T cells in 1 hour supernatants), ratio 37 (geometric MFI): -1400
Transactivation (pSTAT4 geometric MFI on GFP+ cells in co-culture), ratio 2.3 (geometric MFI): 2840
Transactivation (pSTAT4 geometric MFI on GFP+ cells in co-culture), ratio 4.6 (geometric MFI): 4370
Transactivation (pSTAT4 geometric MFI on GFP+ cells in co-culture), ratio 9.2 (geometric MFI): 5570
Transactivation (pSTAT4 geometric MFI on GFP+ cells in co-culture), ratio 18.5 (geometric MFI): 6420
Transactivation (pSTAT4 geometric MFI on GFP+ cells in co-culture), ratio 37 (geometric MFI): 6940
Transactivation (pSTAT4 geometric MFI on GFP+ cells in co-culture); table head says CAR-IL12+:GFP+ ratio of 64, paragraph 725 gives 73.9 (geometric MFI): 6450

Substance: membrane bound IL12 encoded by OT-002011 (B7.1 transmembrane domain and short CD8 hinge domain) (ligand)
Bystander effect (pSTAT4 geometric MFI on GFP+ T cells in 1 hour supernatants), ratio 2.4 (geometric MFI): -642
Bystander effect (pSTAT4 geometric MFI on GFP+ T cells in 1 hour supernatants), ratio 4.7 (geometric MFI): -566
Bystander effect (pSTAT4 geometric MFI on GFP+ T cells in 1 hour supernatants), ratio 9.5 (geometric MFI): -1130
Bystander effect (pSTAT4 geometric MFI on GFP+ T cells in 1 hour supernatants), ratio 18.9 (geometric MFI): -1380
Bystander effect (pSTAT4 geometric MFI on GFP+ T cells in 1 hour supernatants), ratio 37.9 (geometric MFI): -2880
Bystander effect (pSTAT4 geometric MFI on GFP+ T cells in 1 hour supernatants), ratio 75.8 (geometric MFI): -3530
Transactivation (pSTAT4 geometric MFI on GFP+ cells in co-culture), ratio 2.4 (geometric MFI): 5190
Transactivation (pSTAT4 geometric MFI on GFP+ cells in co-culture), ratio 4.7 (geometric MFI): 6680
Transactivation (pSTAT4 geometric MFI on GFP+ cells in co-culture), ratio 9.5 (geometric MFI): 7760
Transactivation (pSTAT4 geometric MFI on GFP+ cells in co-culture), ratio 18.9 (geometric MFI): 8320
Transactivation (pSTAT4 geometric MFI on GFP+ cells in co-culture), ratio 37.9 (geometric MFI): 8030
Transactivation (pSTAT4 geometric MFI on GFP+ cells in co-culture); table head says ratio of 64, paragraph 725 gives 75.8 (geometric MFI): 8090

Substance: membrane bound IL12 encoded by OT-002112 (B7.1 TM domain and FcgammaR2b (Fcgr2b) as a hinge domain) (ligand)
Bystander effect (pSTAT4 geometric MFI on GFP+ T cells in 1 hour supernatants), ratio 1.3 (geometric MFI): -1
Bystander effect (pSTAT4 geometric MFI on GFP+ T cells in 1 hour supernatants), ratio 2.5 (geometric MFI): -818
Bystander effect (pSTAT4 geometric MFI on GFP+ T cells in 1 hour supernatants), ratio 5 (geometric MFI): -232
Bystander effect (pSTAT4 geometric MFI on GFP+ T cells in 1 hour supernatants), ratio 10.1 (geometric MFI): -988
Bystander effect (pSTAT4 geometric MFI on GFP+ T cells in 1 hour supernatants), ratio 20.2 (geometric MFI): -1400
Bystander effect (pSTAT4 geometric MFI on GFP+ T cells in 1 hour supernatants), ratio 40.4 (geometric MFI): -2660
Transactivation (pSTAT4 geometric MFI on GFP+ cells in co-culture), ratio 1.3 (geometric MFI): 5110
Transactivation (pSTAT4 geometric MFI on GFP+ cells in co-culture), ratio 2.5 (geometric MFI): 6070
Transactivation (pSTAT4 geometric MFI on GFP+ cells in co-culture), ratio 5 (geometric MFI): 7760
Transactivation (pSTAT4 geometric MFI on GFP+ cells in co-culture), ratio 10.1 (geometric MFI): 8120
Transactivation (pSTAT4 geometric MFI on GFP+ cells in co-culture), ratio 20.2 (geometric MFI): 8420
Transactivation (pSTAT4 geometric MFI on GFP+ cells in co-culture); table head says ratio of 64, paragraph 725 gives 40.4 (geometric MFI): 8020

The remaining lines, values ahead:

Bystander effect (pSTAT4 geometric MFI on GFP+ T cells in 1 hour supernatants), ratio 2.4 (geometric MFI): 405
Bystander effect (pSTAT4 geometric MFI on GFP+ T cells in 1 hour supernatants), ratio 4.8 (geometric MFI): 1050
Bystander effect (pSTAT4 geometric MFI on GFP+ T cells in 1 hour supernatants), ratio 9.7 (geometric MFI): 1650
Bystander effect (pSTAT4 geometric MFI on GFP+ T cells in 1 hour supernatants), ratio 19.4 (geometric MFI): 1470
Bystander effect (pSTAT4 geometric MFI on GFP+ T cells in 1 hour supernatants), ratio 38.7 (geometric MFI): 1470
Bystander effect (pSTAT4 geometric MFI on GFP+ T cells in 1 hour supernatants), ratio 77.5 (geometric MFI): 955
Transactivation (pSTAT4 geometric MFI on GFP+ cells in co-culture), ratio 2.4 (geometric MFI): 2620
Transactivation (pSTAT4 geometric MFI on GFP+ cells in co-culture), ratio 4.8 (geometric MFI): 3250
Transactivation (pSTAT4 geometric MFI on GFP+ cells in co-culture), ratio 9.7 (geometric MFI): 4030
Transactivation (pSTAT4 geometric MFI on GFP+ cells in co-culture), ratio 19.4 (geometric MFI): 4180
Transactivation (pSTAT4 geometric MFI on GFP+ cells in co-culture), ratio 38.7 (geometric MFI): 4860
Transactivation (pSTAT4 geometric MFI on GFP+ cells in co-culture); table head says ratio of 64, paragraph 725 gives 77.5 (geometric MFI): 5220
Substance: membrane bound IL12 encoded by OT-002096 (B7.1 TM domain and IgG1 CH2-CH3 domain as a hinge domain) (ligand)

Bystander effect (pSTAT4 geometric MFI on GFP+ T cells in 1 hour supernatants), ratio 1.1 (geometric MFI): -136
Bystander effect (pSTAT4 geometric MFI on GFP+ T cells in 1 hour supernatants), ratio 2.1 (geometric MFI): -238
Bystander effect (pSTAT4 geometric MFI on GFP+ T cells in 1 hour supernatants), ratio 4.3 (geometric MFI): -277
Bystander effect (pSTAT4 geometric MFI on GFP+ T cells in 1 hour supernatants), ratio 8.5 (geometric MFI): -1180
Bystander effect (pSTAT4 geometric MFI on GFP+ T cells in 1 hour supernatants), ratio 17.1 (geometric MFI): -3000
Bystander effect (pSTAT4 geometric MFI on GFP+ T cells in 1 hour supernatants), ratio 34.1 (geometric MFI): -3720
Transactivation (pSTAT4 geometric MFI on GFP+ cells in co-culture), ratio 1.1 (geometric MFI): 4500
Transactivation (pSTAT4 geometric MFI on GFP+ cells in co-culture), ratio 2.1 (geometric MFI): 6100
Transactivation (pSTAT4 geometric MFI on GFP+ cells in co-culture), ratio 4.3 (geometric MFI): 7170
Transactivation (pSTAT4 geometric MFI on GFP+ cells in co-culture), ratio 8.5 (geometric MFI): 8200
Transactivation (pSTAT4 geometric MFI on GFP+ cells in co-culture), ratio 17.1 (geometric MFI): 7720
Transactivation (pSTAT4 geometric MFI on GFP+ cells in co-culture); table head says ratio of 64, paragraph 725 gives 34.1 (geometric MFI): 7700
Substance: membrane bound IL12 encoded by OT-001895 (p40 (23-328 of WT); (G4S)3; p35 (57-253 of WT); (GS)15; CD8a Hinge and Transmembrane Domain; GS) (ligand)

Bystander effect (pSTAT4 geometric MFI on GFP+ T cells in 1 hour supernatants), ratio 1.5 (geometric MFI): -59
Bystander effect (pSTAT4 geometric MFI on GFP+ T cells in 1 hour supernatants), ratio 2.9 (geometric MFI): 852
Bystander effect (pSTAT4 geometric MFI on GFP+ T cells in 1 hour supernatants), ratio 5.9 (geometric MFI): 437
Bystander effect (pSTAT4 geometric MFI on GFP+ T cells in 1 hour supernatants), ratio 11.8 (geometric MFI): -58
Bystander effect (pSTAT4 geometric MFI on GFP+ T cells in 1 hour supernatants), ratio 23.6 (geometric MFI): -1010
Bystander effect (pSTAT4 geometric MFI on GFP+ T cells in 1 hour supernatants), ratio 47.1 (geometric MFI): -4240
Transactivation (pSTAT4 geometric MFI on GFP+ cells in co-culture), ratio 1.5 (geometric MFI): 4660
Transactivation (pSTAT4 geometric MFI on GFP+ cells in co-culture), ratio 2.9 (geometric MFI): 6540
Transactivation (pSTAT4 geometric MFI on GFP+ cells in co-culture), ratio 5.9 (geometric MFI): 7210
Transactivation (pSTAT4 geometric MFI on GFP+ cells in co-culture), ratio 11.8 (geometric MFI): 7660
Transactivation (pSTAT4 geometric MFI on GFP+ cells in co-culture), ratio 23.6 (geometric MFI): 7630
Transactivation (pSTAT4 geometric MFI on GFP+ cells in co-culture); table head says ratio of 64, paragraph 725 gives 47.1 (geometric MFI): 5460
Substance: membrane bound IL12 encoded by OT-002111 (B7.1 TM domain and B7.1 C2 domain as a hinge domain) (ligand)
